Experimental data as given in US20250326828A1 (STAIDSON BEIJING BIOPHARMACEUTICALS, published 2025).
Read-outs that look alike come from different tables or passages of the source.

Columns and labels:
human GDF15-his [1] = target: T1, human GDF15-his (human); assay: ELISA; antibody coated, human GDF15-his titrated, anti-his-HRP detection
T1 construct: Recombinant His-tagged fusion protein expressed in 293F cells
T1 chain: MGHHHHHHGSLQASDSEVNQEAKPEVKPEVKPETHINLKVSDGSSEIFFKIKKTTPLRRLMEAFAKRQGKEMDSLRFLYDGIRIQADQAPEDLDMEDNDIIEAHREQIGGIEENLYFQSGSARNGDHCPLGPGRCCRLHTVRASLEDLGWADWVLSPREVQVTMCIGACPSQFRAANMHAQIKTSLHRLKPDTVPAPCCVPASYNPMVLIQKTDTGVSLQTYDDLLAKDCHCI
Method: (§1) ELISA binding assay: The purified monoclonal antibody was subjected to a binding assay with human GDF15-his protein. The binding assay was designed to characterize the binding activity of the anti-GDF15 antibody. Briefly, a 96-well plate was coated with anti-GDF15 antibody (200 ng/well) and incubated for 1 hour at 37° C. The plates were washed with PBST and then blocked for 1 hour at room temperature using 1% BSA. Then 100 µl/well of gradient-diluted human GDF15-his solution (dose range 0-50 μg/ml) was added into plates. After incubation, 100 μl of anti-his tag secondary antibody (anti-his-HRP (1:2000), Bersee, cat #BHR790) was added to each well. Finally, the TMB solution (100 μl/well) was added. 2M H₂SO₄ was used to stop the reaction. The OD450 was measured, and the binding curves were generated by PRISM software to analyze the affinity of candidate antibodies to human GDF15 antigen, and EC₅₀ value were calculated.

human GDF15-his [2] = target: T1, human GDF15-his; assay: cell-based or functional assay
human GDF15-hFc [3] = target: T2, human GDF15-hFc (human); assay: competition ELISA; GFRAL-his coated, antibody titrated against human GDF15-hFc, anti-human IgG-HRP detection
T2 construct: Recombinant hFc-tagged fusion protein expressed in 293F cells
T2 chain: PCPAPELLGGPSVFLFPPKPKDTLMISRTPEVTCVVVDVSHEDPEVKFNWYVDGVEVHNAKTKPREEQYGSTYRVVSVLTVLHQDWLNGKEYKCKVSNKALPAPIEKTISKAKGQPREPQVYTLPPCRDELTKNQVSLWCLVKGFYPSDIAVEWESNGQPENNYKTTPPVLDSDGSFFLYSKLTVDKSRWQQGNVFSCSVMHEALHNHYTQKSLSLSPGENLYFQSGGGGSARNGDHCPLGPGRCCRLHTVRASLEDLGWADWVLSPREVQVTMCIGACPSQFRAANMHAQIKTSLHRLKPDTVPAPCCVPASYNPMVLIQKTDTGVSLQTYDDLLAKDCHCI
Method: (§2) The ELISA assay was performed to measure the inhibitory activity of anti-GDF15 antibodies in concentration gradients to block GDF15 binding to GFRAL receptor. IC₅₀ values were used as a measure for neutralizing activity of candidate molecules. Briefly, 96-well plates were coated with 100 ng/well of GFRAL-his protein (SEQ ID NO: 74), and incubated for 1 h at 37° C. The plates were washed with PBST and then blocked for 1 hour at 37° C. with 1% BSA. Gradient-diluted antibodies (dose range 0˜10 μg/ml) was added into each well, immediately followed by equal volume of human GDF15-hFc protein ([…]). After incubation and washing, 100 μl of anti-human IgG secondary antibody (goat anti-human IgG-HRP, Sigma, A8667) was added to each well. Finally, TMB solution (100 μl/well) was added. 2M H₂SO₄ was used to stop the reaction. The OD450 was measured and the binding curve was generated by PRISM to calculate the IC₅₀ value.

human GDF15-hFc [4] = target: T2, human GDF15-hFc; assay: competition ELISA as in Example 2; GFRAL-his coated, antibody titrated against human GDF15-hFc
Method: as §2

human GDF15-his [5] = target: T1, human GDF15-his; assay: ELISA as in Example 2: plate coated with the antibody, graded human GDF15-his, anti-his-HRP, OD450; the sheet's x axis reads 'Log GDF15 Antibody (nM)'
Method: as §1

human GDF15-his [6] = target: T1, human GDF15-his; assay: cell-based or functional assay
human GDF15-his [7] = target: T1, human GDF15-his; assay: cell-based or functional assay
human GDF15-his [8] = target: T1, human GDF15-his; assay: ELISA as in Example 2: plate coated with the antibody, graded human GDF15-his, anti-his-HRP, OD450; the sheet's x axis reads 'Log GDF15 antibody (nM)'
Method: as §1

human GDF15-his [9] = target: T1, human GDF15-his; assay: cell-based or functional assay
human GDF15-his [10] = target: T1, human GDF15-his; assay: ELISA as in Example 2: plate coated with the antibody, graded human GDF15-his, anti-his-HRP, OD450; the sheet's x axis reads 'Log GDF15 Antibody (nM)'
Method: as §1

B1: GDF-R36-rabIg1 (antibody, V domains shown)
VH: QSLEESGGRLVTPGTPLTLTCTASGFSLSNYYMSWVRQAPGEGLEWIGMISFSGTTYATWAKGRFTISKTSTTVDLKITSPTTEDTATYFCARVVYAGWTYPLGIWGPGTLVTVSS
VL: DPVLTQTPASVSEPVGGTVTIKCQASQSISSVLSWYQQKPGQPPKVLIYEASTLASGVPSRFKGSGSGTDFTLTISDLECADAATYYCQANYDVYNYGNPFGGGTEVVVK
notes: Full-length rabbit antibody: rabbit IgG1 heavy constant and rabbit light constant; also called GDF15-R36-rabIg1
EC50 (human GDF15-his [1]): 44.4 nM | IC50, 293T-GFRAL/RET-Luc SRE luciferase reporter cells stimulated with human GDF15-his (15 ng/ml) (human GDF15-his [2]): 0.17 nM | IC50 (human GDF15-hFc [3]): 1.44 nM

B2: GDF-R35-rabIg1 (antibody, V domains shown)
VH: QSLEESGGRLVTPGTPLTLTCTASGFSLSNYYMSWVRQAPGEGLEWIGMISFSGTTYATWAKGRFTISKTSTTVDLKITSPTTEDTATYFCARVVYAGWTYPLGIWGPGTLVTVSS
VL: AINMTQTPASVSEPVGGTVTIKCQASQSISSVLSWYQQKPGQPPKVLIYEASTQASGVPSRFKGSGSGTDFTLTISDLECADAATYYCQANYDVYNYGNPFGGGTEVVVK
notes: Full-length rabbit antibody: rabbit IgG1 heavy constant and rabbit light constant; also called GDF15-R35-rabIg1
EC50 (human GDF15-his [1]): 31.3 nM | IC50, 293T-GFRAL/RET-Luc SRE luciferase reporter cells stimulated with human GDF15-his (15 ng/ml) (human GDF15-his [2]): 0.21 nM | IC50 (human GDF15-hFc [3]): 1.32 nM

B3: GDF-R45-rabIg1 (antibody, V domains shown)
VH: QSVKESGGRLVTPGTPLTLTCTASGFSLSDYYMTWVRQAPGEGLEWIGMISFSGTTYATWAKGRFTISKASTTVDLKITSPTTEDTATYFCARVVYAGWTYPLGIWGPGTLVTVSS
VL: YVMMTQTPPSVSEPVGGTVTIKCQASQSISSVLSWYQQKPGQPPKVLIYEASTLASGVPSRFKGSGSGTDFTLTISDLECADAATYYCQANYDVYNYGNPFGGGTEVVVK
notes: Full-length rabbit antibody: rabbit IgG1 heavy constant and rabbit light constant; also called GDF15-R45-rabIg1
EC50 (human GDF15-his [1]): 68.9 nM | IC50, 293T-GFRAL/RET-Luc SRE luciferase reporter cells stimulated with human GDF15-his (15 ng/ml) (human GDF15-his [2]): 0.18 nM | IC50 (human GDF15-hFc [3]): 1.56 nM

B4: hum_R37-10 (antibody, V domains shown)
VH: EVQLVESGGGLVKPGGSLRLSCAASGFSLSNYYMSWVRQAPGKGLEWIGMISFSGTTYATWAKGRFTISRDDSKNTVYLQINSLKTEDTAVYFCARVVYAGWTYPLGIWGQGTLVTVSS
VL: DIQMTQSPSSLSASVGDRVTITCQASQSISSVLSWYQQKPGKPPKALIYEASILASGVPSRFSGSGSGTDFTLTISSLQPEDFATYYCQANYDVYNYGNPFGGGTKVEIK
notes: Tested in human IgG1 format
IC50 (human GDF15-hFc [4]): 1.86 nM | EC50 (read off the curve) (human GDF15-his [5]): ~80 nM | IC50 (read off the curve), SRE-luciferase signal in 293T-GFRAL/RET-Luc cells with human GDF15-his (human GDF15-his [6]): ~0.06 nM

B5: hum_R37-12 (antibody, V domains shown)
VH: EVQLVESGGGLVKPGGSLRLSCAASGFSLSNYYMSWVRQAPGKGLEWVGMISFSGTTYATWAKGRFTISRDDSKNTLYLQMNSLKTEDTAVYFCARVVYAGWTYPLGIWGQGTLVTVSS
VL: DIQMTQSPSSLSASVGDRVTITCQASQSISSVLSWYQQKPGKPPKALIYEASILASGVPSRFSGSGSGTDFTLTISSLQPEDFATYYCQANYDVYNYGNPFGGGTKVEIK
notes: Tested in human IgG1 format
IC50 (human GDF15-hFc [4]): 1.83 nM | IC50 (read off the curve), SRE-luciferase signal in 293T-GFRAL/RET-Luc cells with human GDF15-his (human GDF15-his [7]): ~0.05 nM | EC50 (read off the curve) (human GDF15-his [5]): ~80 nM

B6: hum_R37-14 (antibody, V domains shown)
VH: EVQLVESGGGLVKPGGSLRLSCAASGFSLSNYYMSWVRQAPGKGLEWIGMISFSGTTYATWAKGRFTISKDSSTVYLQINSLKTEDTAVYFCARVVYAGWTYPLGIWGQGTLVTVSS
VL: DIQMTQSPSSLSASVGDRVTITCQASQSISSVLSWYQQKPGKPPKLLIYEASILASGVPSRFSGSGSGTDFTLTISSLQPEDFATYYCQANYDVYNYGNPFGGGTKVEIK
notes: Tested in human IgG1 format
IC50 (human GDF15-hFc [4]): 1.51 nM | EC50 (read off the curve) (human GDF15-his [8]): ~200 nM | IC50 (read off the curve), SRE-luciferase signal in 293T-GFRAL/RET-Luc cells with human GDF15-his (human GDF15-his [9]): ~0.2 nM

B7: hum_R37-4 (antibody, V domains shown)
VH: EVQLVESGGGLVKPGGSLRLSCAASGFSLSNYYMSWVRQAPGKGLEWIGMISFSGTTYATWAKGRFTISRDDSKNTVYLQINSLKTEDTAVYFCARVVYAGWTYPLGIWGQGTLVTVSS
VL: DIQLTQSPSSLSASVGDRVTITCQASQSISSVLSWYQQKPGKPPKALIYEASILASGVPSRFSGSGSGTDFTLTISSLQPEDFATYYCQANYDVYNYGNPFGGGTKVEIK
notes: Tested in human IgG1 format
IC50 (human GDF15-hFc [4]): 1.76 nM | IC50 (read off the curve), SRE-luciferase signal in 293T-GFRAL/RET-Luc cells with human GDF15-his (human GDF15-his [6]): ~0.06 nM | EC50 (read off the curve) (human GDF15-his [10]): ~60 nM

B8: hum_R37-6 (antibody, V domains shown)
VH: EVQLVESGGGLVKPGGSLRLSCAASGFSLSNYYMSWVRQAPGKGLEWVGMISFSGTTYATWAKGRFTISRDDSKNTLYLQMNSLKTEDTAVYFCARVVYAGWTYPLGIWGQGTLVTVSS
VL: DIQLTQSPSSLSASVGDRVTITCQASQSISSVLSWYQQKPGKPPKALIYEASILASGVPSRFSGSGSGTDFTLTISSLQPEDFATYYCQANYDVYNYGNPFGGGTKVEIK
notes: Tested in human IgG1 format
IC50 (human GDF15-hFc [4]): 1.72 nM | IC50 (read off the curve), SRE-luciferase signal in 293T-GFRAL/RET-Luc cells with human GDF15-his (human GDF15-his [6]): ~0.06 nM | EC50 (read off the curve) (human GDF15-his [10]): ~60 nM

B9: GDF-R31-rabIg1 (antibody, V domains shown)
VH: QQLKESGGRLVTPGTPLTLTCTVSGFSLSDYYMSWVRQAPGKGLEWIGDIYGGSGTTDYASWVKGRFTISKTSTTVDLRIASPTTEDTATYFCGRGITADIWGPGTLVTVSL
VL: DIVLTQTPASVEAAVGGTVTIKCQASQSISSYLAWYQQKPGQPPKLLIYKASTLASGVPSRFKGSGSGTEFTLTISDLECADAATYYCRCIYGDSYGAAFGGGTEVVVQ
notes: Full-length rabbit antibody: rabbit IgG1 heavy constant (pTTa1-rab Ig1-H) and rabbit light constant (pTTa1-rab-CLB4); also called GDF15-R31-rabIg1
EC50 (human GDF15-his [1]): 66.5 nM | IC50 (human GDF15-hFc [3]): 2.28 nM

B10: GDF-R44-rabIg1 (antibody, V domains shown)
VH: QSVKESGGRLVTPGTPLTLTCKASGFSLSTYWMSWVRQAPGKGLEWIGTIYAGSGGTWYASWVKGRFTISKTSTTVDLKMTSLTTEDTATYFCVRGPNYSDAIWGPGTLVTVSS
VL: DIVLTQTAASVSEPVGGTVTIKCQASEYIYSSLAWYQQKPGQPPKLLIYDASDLASGVPSRFKGSGYGTEFTLTISGVQCGDAATYYCQCTDLSSSAGNTFGGGTEVVVK
notes: Full-length rabbit antibody: rabbit IgG1 heavy constant and rabbit light constant; also called GDF15-R44-rabIg1
EC50 (human GDF15-his [1]): 54.8 nM | IC50, 293T-GFRAL/RET-Luc SRE luciferase reporter cells stimulated with human GDF15-his (15 ng/ml) (human GDF15-his [2]): 0.27 nM | IC50 (human GDF15-hFc [3]): 1.98 nM

B11: GDF-R54-rabIg1 (antibody, V domains shown)
VH: QQLKESGGRLVTPGTPLTLTCTVSGFSLSSYDMTWVRQVPGKGLEWIGIINNSGNTYYASWAKGRFTISKTSTTVDLKITSPTTEDTATYFCARGILVYADYGDHNLWGPGTLVTVSS
VL: DVVMTQTASPVSAAVGGTVTINCQASEDIYTNLAWFQQKPGQPPKLLIYAASTLASGVPSRFSGSGSGTEFTLTISGLQCDDAATYFCLGVYTYISADGAFGGGTEVVVK
notes: Full-length rabbit antibody: rabbit IgG1 heavy constant and rabbit light constant; also called GDF15-R54-rabIg1
EC50 (human GDF15-his [1]): 30.9 nM | IC50, 293T-GFRAL/RET-Luc SRE luciferase reporter cells stimulated with human GDF15-his (15 ng/ml) (human GDF15-his [2]): 0.18 nM | IC50 (human GDF15-hFc [3]): 0.82 nM
